These results are taken from the supplement of paper PMC9732359.

± gives the uncertainty stated by the source.

The data set in a line: protein stability index of a GFP-peptide fusion (yeast GPS) (PSI 1-4); higher = more stable; sorted into four equal gates, so the index is relative within each strain. The method in brief:
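Mid-log yeast cultures in leucine-free medium, carrying a pooled plasmid library, were sorted into four equal gates by their GFP/Cherry fluorescence ratio. Each plasmid expressed Cherry along with GFP fused upstream of a tiled 17-residue yeast protein peptide. Plasmids recovered from each gate were PCR-amplified and Illumina-sequenced, with reads assigned to strains by barcodes. The protein stability index was obtained by summing each gate's read frequency weighted by its gate number.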

In the case of NNGSSDKSLDSSNASFN [MED1], the protein stability index amounted to 2.92 ± 0.13 (doa10∆), 3.04 ± 0.15 (pdr5∆), 3.08 ± 0.22 (san1∆) and 2.98 ± 0.12 (ubr1∆).
On the same counts, the results for YSLIRETNGYDPFSIYG [SNF5] are 1.23 ± 0.056, 1.31 ± 0.088, 1.15 ± 0.18 and 1.06 ± 0.084.
As for PASDDILDNINHNGSAL [ITC1], the protein stability index is 2.9 ± 0.1 (doa10∆), 3.21 ± 0.096 (pdr5∆), 3.06 ± 0.095 (san1∆) and 3.29 ± 0.078 (ubr1∆).
On the same counts, the results for AYPAAREQFLNAQDIDH [FAS1] are 3.13 ± 0.082, 3.15 ± 0.11, 2.84 ± 0.11 and 3.21 ± 0.054.
On the same counts, the results for IEKTESVDKKVDSGEER [SWI3] are 3.26 ± 0.098, 3.3 ± 0.14, 3.36 ± 0.055 and 3.46 ± 0.066.
In the same order, the values of PQVLINRDPVKHAEFDL [SIR2] are 2.39 ± 0.14, 3.04 ± 0.093, 3.08 ± 0.12 and 2.79 ± 0.1.
Take ARNLYIIAVKGSGSRLN [RPL23A]: the protein stability index worked out at 1.27 ± 0.041 (doa10∆), 1.19 ± 0.044 (pdr5∆), 1.22 ± 0.088 (san1∆) and 1.35 ± 0.042 (ubr1∆).
In the same order, the values of GKPVSLPLLYNFNPDNG [FAS1] are 2.93 ± 0.095, 3.27 ± 0.1, 2.62 ± 0.075 and 2.92 ± 0.076.
As for LPSGRQDGVLLVALSNE [FAS2], the protein stability index runs as follows: (doa10∆) 2.4 ± 0.087; (pdr5∆) 2.52 ± 0.097; (san1∆) 2.44 ± 0.091; (ubr1∆) 1.91 ± 0.13.
Turning to LIKMSRSPPRPPSLKII [PRP28], the protein stability index is, setting by setting: (doa10∆) 2.16 ± 0.062; (pdr5∆) 2.3 ± 0.068; (san1∆) 2.3 ± 0.072; (ubr1∆) 1.86 ± 0.052.
Turning to AMIALSMILIQQTEKLN [RPN2], the protein stability index is 1.32 ± 0.077 (doa10∆), 1.35 ± 0.066 (pdr5∆), 1.45 ± 0.14 (san1∆) and 1.6 ± 0.064 (ubr1∆).
In the same order, the values of QKLDILVAKLKKVKSAS [SMC4] are 2.64 ± 0.076, 2.25 ± 0.051, 2.61 ± 0.071 and 2.73 ± 0.045.
As to LGMGKAVEKTLALGCHF [POP7], the protein stability index was 1.98 ± 0.097 (doa10∆), 2.16 ± 0.08 (pdr5∆), 2.6 ± 0.1 (san1∆) and 2.38 ± 0.088 (ubr1∆).
On the same counts, the results for ARAPKYASKAVPHYNRL [RPL25] are 2.94 ± 0.078, 3 ± 0.065, 2.79 ± 0.052 and 2.98 ± 0.047.
On the same counts, the results for TINLDRFMKGRRSKQLI [RPC82] are 2.09 ± 0.1, 2.64 ± 0.078, 1.79 ± 0.17 and 2.74 ± 0.078.
On the same counts, the results for LEGEELAFYLRRLTAKK [RPS8A] are 1.9 ± 0.068, 1.75 ± 0.068, 1.93 ± 0.1 and 3.05 ± 0.099.
With SSDGALCMDSSYIGTII [POP1], the protein stability index was found to be 3.09 ± 0.09 (doa10∆), 2.71 ± 0.083 (pdr5∆), 3.04 ± 0.12 (san1∆) and 3.23 ± 0.14 (ubr1∆).
Sequence YQRSKRVNNPNVSLIKI [RPL33A] came in with a protein stability index (doa10∆) of 3.1 ± 0.067, a protein stability index (pdr5∆) of 3.15 ± 0.065, a protein stability index (san1∆) of 2.93 ± 0.059 and a protein stability index (ubr1∆) of 3.21 ± 0.045.
With SDRREHDEKLSDELHNQ [LIN1], the protein stability index came out at 2.56 ± 0.18 (pdr5∆), 3.19 ± 0.16 (san1∆) and 2.89 ± 0.16 (ubr1∆).
On to GEDFMEVDYEDKDNPVD [SRB4], for which the protein stability index came to 3.56 ± 0.12 (doa10∆), 2.96 ± 0.24 (pdr5∆), 3.46 ± 0.15 (san1∆) and 3.32 ± 0.17 (ubr1∆).
Take QNNTTKFHSELQYLDKH [RPN12]: the protein stability index reads like this: (doa10∆) 2.81 ± 0.1; (pdr5∆) 3 ± 0.095; (san1∆) 2.39 ± 0.26; (ubr1∆) 3.17 ± 0.061.
Take NSNKQAVAILADDEKSD [BRR2]: the protein stability index (doa10∆) is 3.04 ± 0.091, the protein stability index (pdr5∆) was 3.07 ± 0.071, the protein stability index (san1∆) was 3.03 ± 0.086 and the protein stability index (ubr1∆) came to 2.88 ± 0.044.
For ASLHSKELTRIPGEEVE [MED4], the protein stability index turned out to be 2.97 ± 0.12 (doa10∆), 3.29 ± 0.18 (pdr5∆) and 3.03 ± 0.12 (san1∆).
VHPDYLYGAITEDRYNE [FAS2]: the protein stability index runs as follows: (doa10∆) 1.08 ± 0.092; (pdr5∆) 1.34 ± 0.097; (san1∆) 1.14 ± 0.15; (ubr1∆) 1.27 ± 0.086.
On the same counts, the results for LLKLIEPYVAYGYPSYS [RPL7A] are 2.07 ± 0.05, 2.22 ± 0.053, 2.2 ± 0.056 and 2.07 ± 0.042.
In turn, MSVSDNDQALIKVLLRQ [RET1] gave a protein stability index (doa10∆) of 2.48 ± 0.052, a protein stability index (pdr5∆) of 2.62 ± 0.069, a protein stability index (san1∆) of 2.71 ± 0.067 and a protein stability index (ubr1∆) of 2.6 ± 0.053.
